Data reported in article PMC6172241, “A multisubstrate reductase from Plantago major: structure-function in the short chain reductase superfamily” (Scientific Reports, 2018).

Key:
Test in all cases: purified protein
purified protein [1] = substrate: CC(=O)[C@H]1CC[C@H]2[C@@H]3CCC4=CC(=O)CC[C@]4(C)[C@H]3CC[C@]12C; conditions: 150 µM NADPH, 20 mM MOPS pH 7.0, 3% DMSO, substrate 10-200 µM (limited solubility), crystal structure with NAD+ at 2.7 Å, poor ligand density
purified protein [2] = substrate: CC(C)=CCC/C(C)=C/C=O; conditions: 150 µM NADPH, 20 mM MOPS pH 7.0, 3% DMSO, geranial/neral mixture
purified protein [3] = substrate: C/C(C=O)=C\CC/C(C)=C/C=O; conditions: 150 µM NADPH, 20 mM MOPS pH 7.0, 3% DMSO, reductive cyclisation to nepetalactol, crystal structure with NADP+ at 1.86 Å

B1: PmMOR (P. major multisubstrate oxido-reductase) (Plantago major) (protein)
chain: MSWWWAGAIGAAKKRSDEDEALPKHSSVALIVGVTGIVGNSLAEILPLADTPSGPWKVYGVARRPRPAWNEDNPINYIRCDISDPKDTQEKLSPLTDITHVFYVTWANRSTEVERCEANGKMLKNVLDVVIPNCPDLKHISLQTGRKHYVGPFELIGKIETHDPPFTEDLPRLKFDNFYYTQEDLLFEEVEKKEGLTWSVHRPGNIFGFSPYSMMNLVGTLCVYAAICKHEGKVLRFPGCKAAWDGYSDCSDADLIAEHHIWAAVDPYAKNEAFNVSNGDVFKWKHFWKVLAEQFGVECGEYEEGENLKLQDLMKGKEPVWEEIVRENGLASTNLEDVAVWWFSDAVLDIPCPLDSMNKSKEHGFLGFRNSKNSFISWIDKAKAYKIVP
B1 was tested, and the Km (purified protein [1]) was 28 ± 3.0 µM, the Vmax (purified protein [1]) was 0.00014 µmol/min and the kcat/Km (purified protein [1]) was 2100 M⁻¹ s⁻¹. The Km (purified protein [2]) was 82 ± 4.5 µM, the Vmax (purified protein [2]) was 0.00152 µmol/min and the kcat/Km (purified protein [2]) was 17000 M⁻¹ s⁻¹. It also gave a Km (purified protein [3]) of 368 ± 37 µM, a Vmax (purified protein [3]) of 0.0053 µmol/min and a kcat/Km (purified protein [3]) of 2600 M⁻¹ s⁻¹.
